The results in this text go back to PMC12996321.

Series [1] has as its target recombinant human histone octamer assembled into mononucleosomes on 250 bp 601 Widom DNA (human) (UniProt Q71DI3). The series is described as follows: single-molecule TIRF colocalisation.
In the next series the target is Halo-Sox2 (UniProt P48432 1-319). The series is described as follows: single-molecule TIRF.
Chain of Halo-Sox2 (P48432 whole entry): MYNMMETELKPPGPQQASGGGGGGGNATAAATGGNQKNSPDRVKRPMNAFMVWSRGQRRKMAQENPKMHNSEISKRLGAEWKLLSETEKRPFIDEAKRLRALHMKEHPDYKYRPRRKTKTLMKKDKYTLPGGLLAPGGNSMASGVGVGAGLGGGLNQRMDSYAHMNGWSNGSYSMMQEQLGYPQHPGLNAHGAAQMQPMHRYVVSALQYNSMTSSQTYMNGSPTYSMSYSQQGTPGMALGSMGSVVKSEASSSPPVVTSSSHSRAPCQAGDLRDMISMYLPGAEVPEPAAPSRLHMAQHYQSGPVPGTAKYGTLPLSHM

Take “Halo-Sox2 (recombinant, JF549-labelled) (from UniProt P48432 1-319) (natural protein)”: the residence time tau2 on MN-6 (state attributed to TF-histone interactions) in series [1] was 3.4 s.

B1: Sdna3 DNA+ 50 bp (dsDNA)
DNA 1: AGCACCGCTTAAACGCACGTACGCTTTGTTCCCCGCGTTTTAACCGCCAA
DNA 2: TTGGCGGTTAAAACGCGGGGAACAAAGCGTACGTGCGTTTAAGCGGTGCT
As for B1, the binding result with Halo-Sox2 is reported as “binds”.
